The values that follow come from the supplement of paper PMC10567573.

B1: ANKRD44 (parent)
chain: FHCIETLVTTGANVNETDDWGRTA
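Further: lentivirally expressed fusions sorted by FACS into six bins by GFP to DsRed ratio, PSI derived from sequencing read proportions per bin multiplied by bin number.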

The variants in this series derive from B1. The series can be described thus: protein stability index of a GFP-peptide fusion (GPS, HEK-293T) (PSI 1-6); higher = more stable. The note with it: c terminus: a fixed tail appended.
For the variant FHCIETLMTTGANVNETDDWGRTA [V8M], the protein stability index was 2.2. Turning to FHCIETLYTTGANVNETDDWGRTA [V8Y], the protein stability index came to 2.27. Then FHCIETLTTTGANVNETDDWGRTA [V8T], with 2.29; and FHCIETLFTTGANVNETDDWGRTA [V8F], with 2.26.

Regarding FHCIETLQTTGANVNETDDWGRTA [V8Q], the protein stability index worked out at 3.

Regarding FHCIETLITTGANVNETDDWGRTA [V8I], the protein stability index was 1.8. Then FHCIETLRTTGANVNETDDWGRTA [V8R], with 2.15; and FHCIETLPTTGANVNETDDWGRTA [V8P], with 3.48; and FHCIETLDTTGANVNETDDWGRTA [V8D], with 3.76. On to FHCIETLETTGANVNETDDWGRTA [V8E], for which the protein stability index worked out at 3.35. FHCIETLATTGANVNETDDWGRTA [V8A]: the protein stability index was 2.05. With FHCIETLCTTGANVNETDDWGRTA [V8C] the figure was 2.03. Regarding FHCIETLGTTGANVNETDDWGRTA [V8G], the protein stability index was found to be 1.89. Then FHCIETLSTTGANVNETDDWGRTA [V8S], with 3.12.

Consider FHCIETLLTTGANVNETDDWGRTA [V8L], for which the protein stability index was 1.4.

For FHCIETLNTTGANVNETDDWGRTA [V8N], the protein stability index stood at 2.86. FHCIETLKTTGANVNETDDWGRTA [V8K]: the protein stability index came out at 2.42. With FHCIETLHTTGANVNETDDWGRTA [V8H] the figure was 2.45; with FHCIETLVSTGANVNETDDWGRTA [T9S], 2.23.

FHCIETLVQTGANVNETDDWGRTA [T9Q]: the protein stability index is 2.63. Then FHCIETLVATGANVNETDDWGRTA [T9A], with 2.01. FHCIETLVDTGANVNETDDWGRTA [T9D]: the protein stability index was found to be 3.26. For the variant FHCIETLVHTGANVNETDDWGRTA [T9H], the protein stability index was found to be 2.18. With FHCIETLVLTGANVNETDDWGRTA [T9L] the figure was 1.77. Then FHCIETLVETGANVNETDDWGRTA [T9E], with 3.12.

Take FHCIETLVCTGANVNETDDWGRTA [T9C]: the protein stability index stood at 1.78.

On to FHCIETLVMTGANVNETDDWGRTA [T9M], for which the protein stability index was 1.45. In the case of FHCIETLVKTGANVNETDDWGRTA [T9K], the protein stability index came out at 2.83. Then FHCIETLVFTGANVNETDDWGRTA [T9F], with 1.25. Turning to FHCIETLVGTGANVNETDDWGRTA [T9G], the protein stability index came out at 2.7. As for FHCIETLVITGANVNETDDWGRTA [T9I], the protein stability index was found to be 2.67. With FHCIETLVRTGANVNETDDWGRTA [T9R] the figure was 1.86. FHCIETLVPTGANVNETDDWGRTA [T9P]: the protein stability index was 2.06. With FHCIETLVVTGANVNETDDWGRTA [T9V] the figure was 1.6; with FHCIETLVNTGANVNETDDWGRTA [T9N], 2.56. With FHCIETLVYTGANVNETDDWGRTA [T9Y] the figure was 1.54; with FHCIETLVTTRANVNETDDWGRTA [G11R], 2.6; with FHCIETLVTTIANVNETDDWGRTA [G11I], 2.62.

Take FHCIETLVTTPANVNETDDWGRTA [G11P]: the protein stability index came to 2.23. Then FHCIETLVTTNANVNETDDWGRTA [G11N], with 2; and FHCIETLVTTMANVNETDDWGRTA [G11M], with 1.5. With FHCIETLVTTSANVNETDDWGRTA [G11S] the figure was 1.68. Then FHCIETLVTTQANVNETDDWGRTA [G11Q], with 1.74. Regarding FHCIETLVTTFANVNETDDWGRTA [G11F], the protein stability index came out at 1.47.

In the case of FHCIETLVTTCANVNETDDWGRTA [G11C], the protein stability index is 2.09. FHCIETLVTTYANVNETDDWGRTA [G11Y]: the protein stability index amounted to 2.39. Then FHCIETLVTTDANVNETDDWGRTA [G11D], with 2.88; and FHCIETLVTTEANVNETDDWGRTA [G11E], with 2.94. As for FHCIETLVTTLANVNETDDWGRTA [G11L], the protein stability index stood at 2.44.

Turning to FHCIETLVTTVANVNETDDWGRTA [G11V], the protein stability index is 2.09. With FHCIETLVTTWANVNETDDWGRTA [G11W] the figure was 2.99; with FHCIETLVTTHANVNETDDWGRTA [G11H], 1.53; with FHCIETLVTTAANVNETDDWGRTA [G11A], 1.79. With FHCIETLVTTKANVNETDDWGRTA [G11K] the figure was 2.29. With FHCIETLVTTTANVNETDDWGRTA [G11T], the protein stability index stood at 2.29. Then FHCIETVVTTGANVNETDDWGRTA [L7V], with 2.19.

Take FHCIETGVTTGANVNETDDWGRTA [L7G]: the protein stability index stood at 2.42. With FHCIETNVTTGANVNETDDWGRTA [L7N] the figure was 3.08; with FHCIETIVTTGANVNETDDWGRTA [L7I], 2.23; with FHCIETSVTTGANVNETDDWGRTA [L7S], 2.57. In the case of FHCIETTVTTGANVNETDDWGRTA [L7T], the protein stability index was found to be 2.85. As to FHCIETQVTTGANVNETDDWGRTA [L7Q], the protein stability index amounted to 2.49. On to FHCIETMVTTGANVNETDDWGRTA [L7M], for which the protein stability index was determined as 2.19.

Regarding FHCIETPVTTGANVNETDDWGRTA [L7P], the protein stability index was found to be 3.04. In the case of FHCIETRVTTGANVNETDDWGRTA [L7R], the protein stability index came to 2.66. On to FHCIETKVTTGANVNETDDWGRTA [L7K], for which the protein stability index stood at 2.89.

In the case of FHCIETHVTTGANVNETDDWGRTA [L7H], the protein stability index came to 2.56.

Regarding FHCIETYVTTGANVNETDDWGRTA [L7Y], the protein stability index was determined as 3.58. Take FHCIETLVTAGANVNETDDWGRTA [T10A]: the protein stability index came out at 1.72. With FHCIETLVTGGANVNETDDWGRTA [T10G] the figure was 1.92; with FHCIETLVTEGANVNETDDWGRTA [T10E], 2.37. In the case of FHCIETLVTYGANVNETDDWGRTA [T10Y], the protein stability index came out at 2.14. For the variant FHCIETLVTDGANVNETDDWGRTA [T10D], the protein stability index is 3.46. Then FHCIETLVTIGANVNETDDWGRTA [T10I], with 1.7.

With FHCIETLVTQGANVNETDDWGRTA [T10Q], the protein stability index turned out to be 2.63. Then FHCIETLVTMGANVNETDDWGRTA [T10M], with 1.71; and FHCIETLVTRGANVNETDDWGRTA [T10R], with 2.34; and FHCIETLVTNGANVNETDDWGRTA [T10N], with 2.66.

FHCIETLVTWGANVNETDDWGRTA [T10W]: the protein stability index was determined as 2.68.

Turning to FHCIETLVTKGANVNETDDWGRTA [T10K], the protein stability index was 2.24. As to FHCIETLVTCGANVNETDDWGRTA [T10C], the protein stability index was 1.96. Then FHCIETLVTLGANVNETDDWGRTA [T10L], with 1.65; and FHCIETLVTHGANVNETDDWGRTA [T10H], with 2.08; and FHCIETLVTPGANVNETDDWGRTA [T10P], with 2.36.

As to FHCIETLVTSGANVNETDDWGRTA [T10S], the protein stability index was found to be 2.08. Then FHCIETLVTVGANVNETDDWGRTA [T10V], with 2.17; and FHCIETLVTTGENVNETDDWGRTA [A12E], with 2.31. Turning to FHCIETLVTTGHNVNETDDWGRTA [A12H], the protein stability index came out at 2.1. Then FHCIETLVTTGINVNETDDWGRTA [A12I], with 1.7; and FHCIETLVTTGDNVNETDDWGRTA [A12D], with 1.87. Then FHCIETLVTTGFNVNETDDWGRTA [A12F], with 2.61; and FHCIETLVTTGKNVNETDDWGRTA [A12K], with 2.07; and FHCIETLVTTGCNVNETDDWGRTA [A12C], with 1.1. As to FHCIETLVTTGGNVNETDDWGRTA [A12G], the protein stability index amounted to 1.52.
